This is an account of results in US20250154265A1 (BEIGENE, published 2025).

Common to all, as to assay: cell-based or functional assay
The target in test [1] is T1, human cMET on cells (Hs746T, H596, EBC-1) (human, UniProt P08581 25-1390).
Test [2] deals with T1, human cMET on cells (Hs746T, H596, …). The source holds these as a separate data set.
For test [3] the target is unchanged. The source holds these as a separate data set.

T1 sequence (P08581 25-1390 limits assumed): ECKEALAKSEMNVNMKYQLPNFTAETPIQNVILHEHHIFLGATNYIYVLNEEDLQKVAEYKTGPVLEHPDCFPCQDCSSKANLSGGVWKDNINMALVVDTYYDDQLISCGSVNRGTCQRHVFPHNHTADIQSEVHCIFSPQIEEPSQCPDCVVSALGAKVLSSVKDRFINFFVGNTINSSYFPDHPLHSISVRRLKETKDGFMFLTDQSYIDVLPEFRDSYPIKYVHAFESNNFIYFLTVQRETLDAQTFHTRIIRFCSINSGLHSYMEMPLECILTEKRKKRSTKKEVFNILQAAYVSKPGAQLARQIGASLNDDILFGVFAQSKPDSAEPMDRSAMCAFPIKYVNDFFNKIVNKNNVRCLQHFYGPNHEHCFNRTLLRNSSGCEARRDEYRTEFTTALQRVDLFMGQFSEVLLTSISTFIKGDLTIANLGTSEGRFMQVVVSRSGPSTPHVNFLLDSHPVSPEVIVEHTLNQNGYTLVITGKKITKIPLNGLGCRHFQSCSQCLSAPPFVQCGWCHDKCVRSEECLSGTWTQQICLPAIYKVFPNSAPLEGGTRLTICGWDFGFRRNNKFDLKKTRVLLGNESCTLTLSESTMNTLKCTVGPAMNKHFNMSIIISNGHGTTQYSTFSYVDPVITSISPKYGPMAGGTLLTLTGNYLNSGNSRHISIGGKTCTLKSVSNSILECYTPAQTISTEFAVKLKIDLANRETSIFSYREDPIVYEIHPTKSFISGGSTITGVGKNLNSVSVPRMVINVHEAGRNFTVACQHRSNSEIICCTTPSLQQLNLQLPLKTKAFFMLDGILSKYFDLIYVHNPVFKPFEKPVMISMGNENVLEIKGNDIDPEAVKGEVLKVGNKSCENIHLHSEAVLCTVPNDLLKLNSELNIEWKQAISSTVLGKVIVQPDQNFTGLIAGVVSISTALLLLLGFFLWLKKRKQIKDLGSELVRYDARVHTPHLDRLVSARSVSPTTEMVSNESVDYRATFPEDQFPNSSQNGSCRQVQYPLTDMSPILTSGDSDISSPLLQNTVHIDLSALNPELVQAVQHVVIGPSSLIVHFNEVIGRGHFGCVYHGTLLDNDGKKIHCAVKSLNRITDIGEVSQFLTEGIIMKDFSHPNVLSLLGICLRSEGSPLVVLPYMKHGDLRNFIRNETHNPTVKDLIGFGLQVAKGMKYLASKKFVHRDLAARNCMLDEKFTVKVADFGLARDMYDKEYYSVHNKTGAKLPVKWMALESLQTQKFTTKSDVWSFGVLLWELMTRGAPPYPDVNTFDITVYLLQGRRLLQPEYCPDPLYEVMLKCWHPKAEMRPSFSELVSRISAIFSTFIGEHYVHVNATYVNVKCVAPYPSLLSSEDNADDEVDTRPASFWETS

B1: 063Ab07710 (antibody, human IgG1, kappa, V domains shown)
VH: QVQLVESGGGVVQPGRSLRLSCAASGFTFSSYGMHWVRQAPGKGLEWVAVISNDGSYKYYVDSVTGRFTISRDNSKNTLYLQMNSLRAEDTAVYYCAKDRNMGYSGWFDYWGQGSLVTVSS
VL: not shown
As for B1, the “IC50, inhibition of HGF-induced ERK phospho-T202/Y204 in H596 cells” value in test [1] is greater than 250000 pM.

B2: 06BS02 (bispecific antibody, V domains shown)
VH 1: QVQLVESGGGVVQPGRSLRLSCAASGFTFSSHGMHWVRQAPGKGLEWVAVISYDESDKYYADSVKGRFTISRDHSKNTLYLQMNSLRAEDTAVYYCVKDRNMGYSGWLDYWGQGTLVTVSS
VH 2: QFQLQESGPGLVKPSETLSLTCTVSGGSISTSSYYWGWIRQPPGKGLEWIGTIYFSGTTYYNPSLTSRVSMSVDTSKNQFSLKLNSVTAADTSIYYCARHWPKYNSWFDPWGQGFLVTVSS
VL: not shown
Regarding B2, the “Imax %, inhibition of HGF-induced ERK phospho-T202/Y204 in H596 cells” value in test [2] was found to be 90%.

B3: 06BS03 (bispecific antibody, V domains shown)
VH 1: QVQLVESGGGVVQPGKSLRLSCAASGFTFSSSGLHWVRQAPGKGLEWVAVISYDTSNKYYADSVKGRFTISRDNSKNTLYLQMNSLRAEDTAVYYCAKDLNRGYDWGFDYWGQGTLVTVSS
VH 2: QFQLQESGPGLVKPSETLSLTCTVSGGSISTSSYYWGWIRQPPGKGLEWIGTIYYSGTTYYNPSLKSRVTISVDTSKNQFSLKLKSVTAADTSIYYCARHWPKYNSWFDPWGQGILVTVSS
VL: not shown
For the molecule B3, the “IC50, inhibition of ERK phospho-T202/Y204 in Hs746T cells” value in test [3] turned out to be 500 pM.
